# Assay results reported in patent US20100260668A1 (published 2010).
# T1: PlGF (Placental GF) (UniProt P49763-2 21-149, limits assumed)
# T1 construct: Bought reagent
# T1 sequence (looked up): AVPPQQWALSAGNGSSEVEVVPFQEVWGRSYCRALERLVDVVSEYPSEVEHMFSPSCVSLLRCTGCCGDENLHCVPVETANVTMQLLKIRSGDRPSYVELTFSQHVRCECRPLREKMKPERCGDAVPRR
# B1: DVD258 (PLGF (seq. 1) N-terminal / DLL-4 (seq. 1) C-terminal DVD-Ig) (bispecific antibody, human IgG1, kappa)
# heavy: not shown
# light: DIVLTQSPDSLAVSLGERVTMNCKSSQSLLNSGMRKSFLAWYQQKPGQSPKLLIYWASTRESGVPDRFTGSGSGTDFTLTISSVQAEDVAVYYCKQSYHLFTFGSGTKLEIKRTVAAPDIQMTQSPSSLSASVGDRVTITCRASQDVSTAVAWYQQKPGKAPKLLIYSASFLYSGVPSRFSGSGSGTDFTLTISSLQPEDFATTYYCQQSYTGTVTFGQGTKVEIKRTVAAPSVFIFPPSDEQLKSGTASVVCLLNNFYPREAKVQWKVDNALQSGNSQESVTEQDSKDSTYSLSSTLTLSKADYEKHKVYACEVTHQGLSSPVTKSFNRGEC
# notes: also called VD258H; VD258L
# B2: DVD258 (bispecific antibody, human IgG1, kappa)
# heavy: not shown
# light: B1 light
# notes: DVD-Ig; outer AB047 (PlGF), inner AB015 (DLL4); also called PlGF and DLL4 DVD-Ig
# B3: DVD257 (DLL-4 (seq. 1) and PLGF (seq. 1) DVD-Ig) (bispecific antibody, IgG1)
# VH: EVQLVESGGGLVQPGGSLRLSCAASGFTFTDNWISWVRQAPGKGLEWVGYISPNSGFTYYADSVKGRFTISADTSKNTAYLQMNSLRAEDTAVYYCARDNFGGYFDYWGQGTLVTVSSASTKGPQVQLQQSGAELVKPGASVKISCKASGYTFTDYYINWVKLAPGQGLEWIGWIYPGSGNTKYNEKFKGKATLTIDTSSSTAYMQLSSLTSEDTAVYFCVRDSPFFDYWGQGTLLTVSS
# VL: DIQMTQSPSSLSASVGDRVTITCRASQDVSTAVAWYQQKPGKAPKLLIYSASFLYSGVPSRFSGSGSGTDFTLTISSLQPEDFATTYYCQQSYTGTVTFGQGTKVEIKRTVAAPDIVLTQSPDSLAVSLGERVTMNCKSSQSLLNSGMRKSFLAWYQQKPGQSPKLLIYWASTRESGVPDRFTGSGSGTDFTLTISSVQAEDVAVYYCKQSYHLFTFGSGTKLEIKR
# notes: Outer AB015, inner AB047; HC vector V1 (wild-type hIgG1 constant), LC vector V2 (kappa constant); also called 7H; VD257L
# B4: DVD258 (PLGF (seq. 1) and DLL-4 (seq. 1) DVD-Ig) (bispecific antibody, IgG1)
# VH: QVQLQQSGAELVKPGASVKISCKASGYTFTDYYINWVKLAPGQGLEWIGWIYPGSGNTKYNEKFKGKATLTIDTSSSTAYMQLSSLTSEDTAVYFCVRDSPFFDYWGQGTLLTVSSASTKGPEVQLVESGGGLVQPGGSLRLSCAASGFTFTDNWISWVRQAPGKGLEWVGYISPNSGFTYYADSVKGRFTISADTSKNTAYLQMNSLRAEDTAVYYCARDNFGGYFDYWGQGTLVTVSS
# VL: DIVLTQSPDSLAVSLGERVTMNCKSSQSLLNSGMRKSFLAWYQQKPGQSPKLLIYWASTRESGVPDRFTGSGSGTDFTLTISSVQAEDVAVYYCKQSYHLFTFGSGTKLEIKRTVAAPDIQMTQSPSSLSASVGDRVTITCRASQDVSTAVAWYQQKPGKAPKLLIYSASFLYSGVPSRFSGSGSGTDFTLTISSLQPEDFATTYYCQQSYTGTVTFGQGTKVEIKR
# notes: Outer AB047, inner AB015; HC vector V1 (wild-type hIgG1 constant), LC vector V2 (kappa constant); also called VD258H; VD258L
# B5: AB062 (anti-ErbB3 (seq. 1) parent antibody) (antibody, IgG1, V domains shown)
# VH: QVQLQQWGAGLLKPSETLSLTCAVYGGSFSGYYWSWIRQPPGKGLEWIGEINHSGSTNYNPSLKSRVTISVETSKNQFSLKLSSVTAADTAVYYCARDKWTWYFDLWGRGTLVTVSS
# VL: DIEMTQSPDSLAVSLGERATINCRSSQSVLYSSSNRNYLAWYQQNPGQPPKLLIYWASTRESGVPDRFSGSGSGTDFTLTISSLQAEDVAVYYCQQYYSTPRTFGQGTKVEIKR
# notes: HC vector V1 (wild-type hIgG1 constant), LC vector V2 (kappa constant); also called AB062VH; AB062VL
# B6: DVD043 (VEGF (seq. 1) N-terminal / DLL4 (seq. 1) C-terminal DVD-Ig) (bispecific antibody, human IgG1, kappa)
# heavy: not shown
# light: DIQMTQSPSSLSASVGDRVTITCSASQDISNYLNWYQQKPGKAPKVLIYFTSSLHSGVPSRFSGSGSGTDFTLTISSLQPEDFATYYCQQYSTVPWTFGQGTKVEIKRTVAAPDIQMTQSPSSLSASVGDRVTITCRASQDVSTAVAWYQQKPGKAPKLLIYSASFLYSGVPSRFSGSGSGTDFTLTISSLQPEDFATTYYCQQSYTGTVTFGQGTKVEIKRTVAAPSVFIFPPSDEQLKSGTASVVCLLNNFYPREAKVQWKVDNALQSGNSQESVTEQDSKDSTYSLSSTLTLSKADYEKHKVYACEVTHQGLSSPVTKSFNRGEC
# notes: also called DVD043H/DVD043L
# B7: DVD043 (bispecific antibody, human IgG1, kappa)
# heavy: not shown
# light: B6 light
# notes: DVD-Ig; also called VEGF and DLL4 DVD-Ig
# B8: DVD260 (PLGF (seq. 1) and VEGF (seq. 1) DVD-Ig) (bispecific antibody, IgG1)
# VH: QVQLQQSGAELVKPGASVKISCKASGYTFTDYYINWVKLAPGQGLEWIGWIYPGSGNTKYNEKFKGKATLTIDTSSSTAYMQLSSLTSEDTAVYFCVRDSPFFDYWGQGTLLTVSSASTKGPEVQLVESGGGLVQPGGSLRLSCAASGYTFTNYGMNWVRQAPGKGLEWVGWINTYTGEPTYAADFKRRFTFSLDTSKSTAYLQMNSLRAEDTAVYYCAKYPHYYGSSHWYFDVWGQGTLVTVSS
# VL: DIVLTQSPDSLAVSLGERVTMNCKSSQSLLNSGMRKSFLAWYQQKPGQSPKLLIYWASTRESGVPDRFTGSGSGTDFTLTISSVQAEDVAVYYCKQSYHLFTFGSGTKLEIKRTVAAPDIQMTQSPSSLSASVGDRVTITCSASQDISNYLNWYQQKPGKAPKVLIYFTSSLHSGVPSRFSGSGSGTDFTLTISSLQPEDFATYYCQQYSTVPWTFGQGTKVEIKR
# notes: HC vector V1 (wild-type hIgG1 constant), LC vector V2 (kappa constant); also called VD260H; VD260L
# B9: AB063 (anti-ErbB3 (seq. 2) parent antibody) (antibody, IgG1, V domains shown)
# VH: EVQLVESGGGLVQPGGSLRLSCAASGFTFSIYSMNWVRQAPGKGLEWVSYISSSSSTIYYADSVKGRFTISRDNAKNSLYLQMNSLRDEDTAVYYCARDRGDFDAFDIWGQGTMVTVSS
# VL: DIQMTQSPSSLSASVGDRVTITCQASQDITNYLNWYQQKPGKAPKLLIYDASNLETGVPSRFSGSGSGTDFTFTISSLQPEDIATYNCQQCENFPITFGQGTRLEIKR
# notes: HC vector V1 (wild-type hIgG1 constant), LC vector V2 (kappa constant); also called AB063VH; AB063VL
# B10: DVD485 (bispecific antibody, human IgG1, kappa)
# heavy: not shown
# light: DIQMTQSPSSLSASVGDRVTITCRASQDVSTAVAWYQQKPGKAPKLLIYSASFLYSGVPSRFSGSGSGTDFTLTISSLQPEDFATTYYCQQSYTGTVTFGQGTKVEIKRTVAAPSVFIFPPDIQMTQSPSSLSASVGDRVTITCRASQVIRRSLAWYQQKPGKAPKLLIYAASNLASGVPSRFSGSGSGTDFTLTISSLQPEDFATYYCQQSNTSPLTFGQGTKVEIKRTVAAPSVFIFPPSDEQLKSGTASVVCLLNNFYPREAKVQWKVDNALQSGNSQESVTEQDSKDSTYSLSSTLTLSKADYEKHKVYACEVTHQGLSSPVTKSFNRGEC
# notes: DVD-Ig; outer AB015 (DLL4), inner AB071 (VEGF); also called DLL4 and VEGF DVD-Ig, HC linker short, LC linker long
# B11: DVD034 (bispecific antibody, human IgG1, kappa)
# heavy: not shown
# light: DIQMTQSPSSVSASVGDRVTITCRASQGISSWLAWYQQKPGKAPNLLIYEASSLQSGVPSRFGGSGSGTDFTLTISSLQPEDFATYYCQQANGFPWTFGQGTKVEIKRTVAAPDVVMTQSPLSLPVTPGEPASISCRSSQSLLHSNGFNYVDWYLQKPGQSPHLLIYFGSYRASGVPDRFSGSGSGTDFTLKISRVEAEDVGVYYCMQALQTPPWTFGQGTKVEIRRTVAAPSVFIFPPSDEQLKSGTASVVCLLNNFYPREAKVQWKVDNALQSGNSQESVTEQDSKDSTYSLSSTLTLSKADYEKHKVYACEVTHQGLSSPVTKSFNRGEC
# notes: DVD-Ig; outer AB012 (HGF), inner AB005 (RON); also called HGF and RON DVD-Ig
# B12: DVD259 (VEGF (seq. 1) and PLGF (seq. 1) DVD-Ig) (bispecific antibody, IgG1)
# VH: EVQLVESGGGLVQPGGSLRLSCAASGYTFTNYGMNWVRQAPGKGLEWVGWINTYTGEPTYAADFKRRFTFSLDTSKSTAYLQMNSLRAEDTAVYYCAKYPHYYGSSHWYFDVWGQGTLVTVSSASTKGPQVQLQQSGAELVKPGASVKISCKASGYTFTDYYINWVKLAPGQGLEWIGWIYPGSGNTKYNEKFKGKATLTIDTSSSTAYMQLSSLTSEDTAVYFCVRDSPFFDYWGQGTLLTVSS
# VL: DIQMTQSPSSLSASVGDRVTITCSASQDISNYLNWYQQKPGKAPKVLIYFTSSLHSGVPSRFSGSGSGTDFTLTISSLQPEDFATYYCQQYSTVPWTFGQGTKVEIKRTVAAPDIVLTQSPDSLAVSLGERVTMNCKSSQSLLNSGMRKSFLAWYQQKPGQSPKLLIYWASTRESGVPDRFTGSGSGTDFTLTISSVQAEDVAVYYCKQSYHLFTFGSGTKLEIKR
# notes: HC vector V1 (wild-type hIgG1 constant), LC vector V2 (kappa constant); also called VD259H; VD259L
# B13: DVD047 (bispecific antibody, human IgG1, kappa)
# heavy: not shown
# light: DIQMTQSPSSLSASVGDRVTITCSASQDISNYLNWYQQKPGKAPKVLIYFTSSLHSGVPSRFSGSGSGTDFTLTISSLQPEDFATYYCQQYSTVPWTFGQGTKVEIKRTVAAPDVVMTQSPLSLPVTPGEPASISCRSSQSLLHSNGFNYVDWYLQKPGQSPHLLIYFGSYRASGVPDRFSGSGSGTDFTLKISRVEAEDVGVYYCMQALQTPPWTFGQGTKVEIRRTVAAPSVFIFPPSDEQLKSGTASVVCLLNNFYPREAKVQWKVDNALQSGNSQESVTEQDSKDSTYSLSSTLTLSKADYEKHKVYACEVTHQGLSSPVTKSFNRGEC
# notes: DVD-Ig; also called VEGF and RON DVD-Ig
# What was measured:
# [1] = biological target: T2, human DLL4 extracellular domain (human, UniProt Q9NR61 27-529, biotin label in the Notch-1 competition ELISA (sites not given)); experiment: competition ELISA: biotin-labelled human DLL4 ECD pre-mixed with DVD-Ig, then on coated human Notch-1 (competitor Notch-1)
# T2 construct: extracellular domain; also called biotin labeled human DLL4 extracellular domain
# DLL4 [2] = biological target: T3, DLL4 (human, UniProt Q9NR61 27-685); experiment: flow cytometry on cells carrying the target, 2 ug/mL; C-terminal VD
# T3 construct: whole, on cells; also called human DLL4
# Method: (§1) Stable cell lines overexpressing a cell-surface antigen of interest or human tumor cell lines were harvested from tissue culture flasks and resuspended in phosphate buffered saline (PBS) containing 5% fetal bovine serum (PBS/FBS). Prior to staining, human tumor cells were incubated on ice with (100 μl) human IgG at 5 μg/ml in PBS/FCS. 1-5×10⁵ cells were incubated with antibody or DVD-Ig (2 μg/mL) in PBS/FBS for 30-60 minutes on ice. […] After 30 minutes incubation on ice, cells were washed twice and resuspended in PBS/FBS. Fluorescence was measured using a Becton Dickinson FACSCalibur (Becton Dickinson, San Jose, Calif.).
# (§2) The geometric mean is the n root of the multiplication product of n fluorescent signals (a1×a2×a3 . . . an). With log-transformed data the geometric mean is used to normalize the weighting of the data distribution.
# DLL4 (DLL4 ECD/His tag) [3] = biological target: T4, DLL4 (DLL4 ECD/His tag) (UniProt Q9NR61 27-529, limits assumed); experiment: Direct Bind ELISA, antigen on plate; N-terminal VD
# T4 construct: extracellular domain; Bought reagent
# PlGF (Placental GF) [4] = biological target: T1, PlGF (Placental GF); experiment: Direct Bind ELISA, antigen on plate; C-terminal VD
# PlGF (Placental GF) [5] = biological target: T1, PlGF (Placental GF); experiment: Direct Bind ELISA, antigen on plate; N-terminal VD
# DLL4 (DLL4 ECD/His tag) [6] = biological target: T4, DLL4 (DLL4 ECD/His tag); experiment: Direct Bind ELISA, antigen on plate; C-terminal VD
# [7] = biological target: T5, ErbB3 (ErbB3 ECD/FC Chimera-His tag) (UniProt P21860 20-643, limits assumed); experiment: Direct Bind ELISA, antigen on plate
# T5 construct: extracellular domain; Bought reagent
# DLL4 [8] = biological target: T3, DLL4; experiment: flow cytometry on 293G-human DLL4 cells; DLL4 VD N-terminal
# RON = biological target: T6, RON (UniProt Q04912 25-1400, limits assumed); experiment: flow cytometry on cells carrying the target, 2 ug/mL; C-terminal VD
# T6 construct: whole, on cells; also called macrophage stimulating protein receptor tyrosine kinase; MSP receptor
# Method: as §1, §2
binder,measurement,setting,value
B1,IC50,[1],17.5 nM
B2,FACS Geometric Mean C-terminal,DLL4 [2],5.57
B3,EC50,DLL4 (DLL4 ECD/His tag) [3],0.28 nM
same,EC50,PlGF (Placental GF) [4],2 nM
B4,EC50,PlGF (Placental GF) [5],0.08 nM
same,EC50,DLL4 (DLL4 ECD/His tag) [6],2.3 nM
B5,EC50,[7],1.93 nM
B6,IC50,[1],13.1 nM
B7,FACS Geometric Mean C-terminal,DLL4 [2],68.4
B8,EC50,PlGF (Placental GF) [5],0.12 nM
B9,EC50,[7],0.28 nM
B10,EC50,DLL4 [8],0.89 nM
B11,FACS Geometric Mean C-terminal,RON,0.39
B12,EC50,PlGF (Placental GF) [4],1.3 nM
B13,FACS Geometric Mean C-terminal,RON,0.51
